Earlier results on 1 protein are cited in paper PMC3839795.

For the data set, the target named is Asp3 (position 2, ----SDNKTYG). As to the kind of experiment: NMR. The conditions noted are these: free peptide in solution (details not stated).

Take SDNKTYG [Heptapeptide derived from turkey ovomucoid third domain (OMTKY3) (Meleagris gallopavo)]: the pKa result was “about 3.6”.
